Data reported in article PMC8589836, “A viral genome packaging ring-ATPase is a flexibly coordinated pentamer” (Nature Communications, 2021).
Where a chain is given by its changes, count along the chain named. In names and notes the source's numbering stands.

B1: SNAP-gp17 (SNAP-tagged full-length wild-type phage T4 large terminase gp17, labelled with SNAP-Surface 549) (enzyme, bacteriophage T4, UniProt P17312 1-610, looked up)
chain: MEQPINVLNDFHPLNEAGKILIKHPSLAERKDEDGIHWIKSQWDGKWYPEKFSDYLRLHKIVKIPNNSDKPELFQTYKDKNNKRSRYMGLPNLKRANIKTQWTREMVEEWKKCRDDIVYFAETYCAITHIDYGVIKVQLRDYQRDMLKIMSSKRMTVCNLSRQLGKTTVVAIFLAHFVCFNKDKAVGILAHKGSMSAEVLDRTKQAIELLPDFLQPGIVEWNKGSIELDNGSSIGAYASSPDAVRGNSFAMIYIDECAFIPNFHDSWLAIQPVISSGRRSKIIITTTPNGLNHFYDIWTAAVEGKSGFEPYTAIWNSVKERLYNDEDIFDDGWQWSIQTINGSSLAQFRQEHTAAFEGTSGTLISGMKLAVMDFIEVTPDDHGFHQFKKPEPDRKYIATLDCSEGRGQDYHALHIIDVTDDVWEQVGVLHSNTISHLILPDIVMRYLVEYNECPVYIELNSTGVSVAKSLYMDLEYEGVICDSYTDLGMKQTKRTKAVGCSTLKDLIEKDKLIIHHRATIQEFRTFSEKGVSWAAEEGYHDDLVMSLVIFGWLSTQSKFIDYADKDDMRLASEVFSKELQDMSDDYAPVIFVDSVHSAEYVPVSHGMSMV
modifications: SNAP-Surface 549 fluorophore (called Cy3 in the paper) on the SNAP-tag
notes: Large terminase gp17 of bacteriophage T4, full-length wild type, amplified from pET15-gp17 and inserted into pET-SNAP; Order on the chain as printed: SNAP-tag, hexa-histidine tag, full-length gp17; Added as a monomer; it assembles into the motor on the T4 head; also called WT gp17; Cy3-labeled gp17; not shown: SNAP-tag, N-terminal, kept
B2: SNAP-Q163A-gp17 (ATPase-defective Walker A P-loop mutant of SNAP-tagged gp17, labelled with SNAP-Surface 549) (enzyme, bacteriophage T4, UniProt P17312 1-610, looked up)
chain: B1 chain with Q163A
modifications: SNAP-Surface 549 fluorophore (called Cy3 in the paper) on the SNAP-tag
notes: Large terminase gp17 of bacteriophage T4, full length, with Q163A; made by overlap PCR with the SNAP-gp17 construct as template; also called Q163A mutant; not shown: SNAP-tag, N-terminal, kept

How the values were obtained:
[1] = molecular target: the molecule itself; assay: single-molecule TIRF fluorescence (Cy3 photobleaching step counting); motors assembled from T4 heads, Cy3-labelled SNAP-gp17 monomer (2-5 uM), 1 mM ATP-gammaS and 120-bp DNA; heads held on a PEG surface by anti-T4 polyclonal antibody; only spots with packaged Cy5-DNA counted; binomial fit of step counts (486 trajectories); room temperature
[2] = molecular target: the molecule itself; assay: not stated; assembly of the Q163A mutant into a pentamer; shown only in Supplementary Fig. 3b-g
[3] = molecular target: T1, WT-gp17 (His-tagged, unlabeled wild-type phage T4 gp17) (bacteriophage T4, UniProt P17312 1-610); assay: single-molecule TIRF fluorescence (Cy3 photobleaching step counting); only the inactive SNAP-Q163A-gp17 labelled with Cy3, mixed with unlabeled WT gp17 and assembled on T4 heads; heads held on a PEG surface by anti-T4 antibody; Cy5-DNA and ATP flowed in, DNase I after ~10 min; Cy3 and Cy5 spots colocalised (2405 trajectories); room temperature; conditions: both partners purified
T1 construct: Large terminase gp17 of bacteriophage T4; also called unlabeled WT gp17; source: E. coli BL21 (DE3) pLysS or codon-plus BL21 (DE3) RIPL, purified (HisTrap, Superdex-200 SEC)

Binder | stoichiometry N [1] | stoichiometry N [2] | binding result [3]
B1 | 5 | – | –
B2 | – | 5 | binds
